Test results published in the DeepSol protein solubility set.

Assay: soluble on expression in E. coli; label from the status in PepcDB or PDB records

Row | Sequence | soluble on expression in E. coli
1 | MGSDKIHHHHHHMSTQYWEEEIEIMSREKLQELQLQRLKKTINIAANSPYYKEVFSKNGITGDSIQSLDDIRKIPFTTKSDMRANYPFGLVAGDMKRDGVRIHSSSGTTGNPTVIVHSQHDLDSWANLVARCLYMVGIRKTDVFQNSSGYGMFTGGLGFQYGAERLGCLTVPAAAGNSKRQIKFISDFKTTALHAIPSYAIRLAEVFQEEGIDPRETTLKTLVIGAEPHTDEQRRKIERMLNVKAYNSFGMTEMNGPGVAFECQEQNGMHFWEDCYLVEIIDPETGEPVPEGEIGELVLTTLDREMMPLIRYRTRDLTRILPGKCPCGRTHLRIDRIKGRSDDMFIIKGVNIFPMQVEKILVQFPELGSNYLITLETVNNQDEMIVEVELSDLSTDNYIELEKIRRDIIRQLKDEILVTPKVKLVKKGSLPQSEGKAVRVKDLRDNK | not soluble
2 | MPELSPLTYGHTDARLILRVGGSMGDVYGQRLLKRDLNGYILNEEGVGLAMENKETYLGSILPKMNMGWSLGFGYKGVNLGMTFTGRFGGIVISETQSVLDAAGVSKVSADVRDAGGVQINQSKVSAQTYYQTIQGTAAYYTYSATNVRLGELSLSYTLPKKWFDNKVGMTVGLVGKNLWMIYCKAPFDPELTTSAASNFYQGFDAYMLPSTRNFGFNVKFQF | not soluble
3 | MDYKVSVLIVCYNQEKYIKKALESVLSQKVNFNYEIVVCDDCSSDRTFNILQEYKSKLGSKLNLIRNYKNLGITLNYKNGFKNCKGEYIAVLEGDDYWIQKSKLKRQVSFLESNRDCSLVFNKIVLDYGDEKINNLIYPFNDIRKKFSARELVRSNFIQNFSCCMYRKSSIRKLRESIYDMVVYDWMFNMAVAQFGLIGYIPNYMTSHRILKSGLWSGKSKMENLQMISKCIDQYDSFFKYKYRKEFSQNKQEVLQALRRLVMVNENGLEHHHHHH | soluble
4 | MGSDKIHHHHHHAQFKKFNLGKAIQAGKDAAQAISLSDADIAAMSKEYMEWMDKHNPLTKPDSEYGKRLERLTGNIKEVDGMKVNFGVYEVVDVNAFACGDGSVRICAGLMDVMTDEEVMAVIGHEIGHVIHTDSKDAMKNAYFRSAVKNAAGAASSQVAKLTDSELGAMAEALAGAQYSQKQEYEADAYGVEFCVKNNIDPYGMYKSLNKLLELSNGAPASSYMQRMFSSHPDTAKRVARAKELADKYKQ | not soluble
5 | MGHHHHHHSHMADIPSFQGTTLTRDTVRQLVSDIFIYKMPFNIELGLELQQFEADKAVLTFARQDKLIGNAAQKILHGGVIAAGLDVAAGLVCVGNTLLRHETISDQEFHHRLARMGTIDMRVDYLRPGYGERFTITSTLLRGGNKIAVARAELHNEQGSHLASATATYIVG | soluble
6 | MDIVSVALQRYSTKAFDPSKKLTAEEADKIKTLLQYSPSSTNSQPWHFIVASTEEGKARVAKSAAGNYTFNERKMLDASHVVVFCAKTAMDDAWLERVVDQEDADGRFATPEAKAANDKGRRFFADMHRVSLKDDHQWMAKQVYLNVGNFLLGVAAMGLDAVPIEGFDAEVLDAEFGLKEKGYTSLVVVPVGHHSVEDFNAGLPKSRLPLETTLTEV | not soluble
7 | MNQAWQSQLPLSHIKNIVPVSGGDVNDAFRIETDQEDYFLLVQRKRKSTFFDAEIAGLNLFEKVGITAPRVIDSGEIEDDAYLLLTYLDEGVSGSQEALGQLVARMHSEQQADNQFGFDLPYEGGDISFDNSWTNSWITLFVEKRLDKLKDRLVQQGLWGDADVTQYQAVRRVIVNELESHNSKPSLLHGDLWGGNYMFLTDGSPALFDPAPLYGDREFDIGITSVFGGFTQAFYDAYHKHYPLSEGADVRLEFYRLYLLMVHLVKFGEMYAGSVDRSMQKILNQLEHHHHHH | soluble
8 | MAHHHHHHMFSESDRRVRYTKGIGPQEASKEGGLLGDEGGKTWRMPKDKPQQNPASVDDNRIDDSIARGDGDNARDSGDGPGDNFLFTPTAARVDVHPLVLLSLVDHYARVNTKVTQKRRVAGLLLGRYKRLPDGTQLLDINNSFAVPFDEDPHNSDVWFVDTNYADEMFHMFRRVLPRVQVVGWYSAGPSFSVQPNDMLLHLLVADRFTANPVYCIVNTDPGNKGVPVLAYTTVQGREGVRSLEFRNIPTHLGAEEAEEIGIEHLLRDLTDSTITTLSTQIQERELSLAHLSCVLQSIEDYLQDVAEGLMPISEDVLSVLQELISLQPHIYHLKRSTEMIRHSNDQAIAMFIAAIGRCVGALYDVIANRRRINSEMVEVRARREQALKEKLEHEQHKAKEVVTTEKDENNNAK | not soluble
9 | MDNLVDIDEDGTQEKLSVNSTPYQTQECVLYGSIFAKNVPDLERRLAGLCDPGCEEFFEHEMSFSLRSSGIMDIKTDIKLRRRFRTEHRIQNYWQLKYIGVPEPDQKCPTIVRKEISSLVHSQDMMTYAKSLGLRMDYEYMTQGKLWTKGNIKILHSILTSTSRAGTYDSNSIKSVSDSALVEISISLPESAEYMPAAKSLRDFADQLMPLVNMEKVDYWKKMFPAQAAPRR | soluble
10 | MMNISHKDHHNDQEISDANRDWWDSDAQRYHNDHAAYLNGFHWCPEMLPEREAHLLGDISGLNVLEIGCGSAPCSRWLFDNYDAFVTGFDLSMGMLRHSPTDVPLTQADAVNLPYKDSSFDIAFSAFGAFPFIENLGPVLKDIARCLKPHGKLVFSTNHPMRWIFPDDPTEIGLCAELSYFDRSYTERDKNGKITYAEFHRTMGDWIELLNASGFIIDRLIEPEWPTNLTETWGQWSPLRGRIFPGTAIFVTHCR | not soluble
11 | MKTIYLHHPITTDEWTDVKKVMALGFFDGVHLGHQAVIKQAKQIAEEKGLQTAVLTFDPHPSVVLSNIRKQVKYLTPLEDKAEKMANLGVDIMYVVRFTTQFSELSPRAFVDNYLVALNVKHVVAGFDYSYGKKGEGKMTELENYANGRFEVTIVDKQTAASDKISSTNIRRAITEGELEEANQLLGYP | not soluble
12 | MRSGKIFHHFDQWGIIIRKDMLKQLALFIALFGAVTAWNRQNHFGNPCYLCSCFTVYTDRDVAVPLRPYAMAIDGYDTTEDRCLATCQRDQRCRAAVYGMVGGRSVFTCEFYEKFNTKSVPVYTTYVNMYMKRSSECKLPIAHLSSIEMIPADNSSLKRRAKLEKLIGRKNPFLG | not soluble
13 | MVGGGLSTDIAGGRTMTCEFRNSRCISDDDDLIRMKEDDTETQKSEFHRKASGFFLRGSGYCRSIFRVSENLEKDWQACNRRAYMSGLVDYQSMARKAYEKLQELGISRHVTPLFAENVTVPIPGVVFLDCVVNDMTLISRIAGLVARAAFHIKNESPQHGLIEVGAPYNLVDNISYPGLIRFCGKVRNNLGNNYNIQCDIFQMCQFGARSLGSVHNTITVTVAAAAPIPNLVPRGILAPPPPPPPLPLPPVRRRAPKVLNLQKFIDAYQPVQSTGYPIGTPAAAAAVEKESAAPVVPENAEKEVAPKIAQKLELCGTPCKIKAEPEDEDIIILKHIAPNTDGGVKRVGSRNKIGKRSQKLKTRRL | not soluble
14 | AHHHHHHGSLCEEKLEVFENGFKDDKHNIEIHVYGGDGRKVLLALIYELYSPEYGSEYVYPFECAKEFWGIYLDSSEVKGEEAELKPLKFISESVKSKIEKELEDIKAPIEVELEKSTIYKVKDGYIVLGKNFLLDHKGRLFVFNKPQVGEIILKYIWKW | soluble
15 | MEIYHQYIKLRKQFGRFPKFGDEGSEMLADIRPNEDHGKEYIPRNPVTTVTQCVPEMSEHEANTNAVILVNKAMSHVEGGWPKDVDYTEAEHTIRYRKKVEKDEDYIRTVVQLGSSVEDLIKQNNAVDIYQEYFTNVTMDHTSEAPHVKTVTVFKDPNNIKRSASYVNWHPDGSVPKVVVAYSILQFQQQPAGMPLSSYIWDVNNPNTPEYEMVPTSQICCAKFNLKDNNLVGAGQYNGQLAYFDVRKGNGPVEATPIDISHRDPIYDFAWLQSKTGTECMTVSTDGNVLWWDLRKMNECVENMPLKEKNSETTVGGVCLEYDTNAGPTNFMVGTEQGQIFSCNRKAKNPVDRVKYVLSGHHGPIYGLRRNPFNSKYFLSIGDWTARVWVEDTAVKTPILTTKYHPTYLTGGTWSPSRPGVFFTIKMDGAMDVWDLYYKHNEPTLTVQVSDLALTAFAVQESGGTVAVGTSDGCTSVLQLSTGLSEASPAEKANINAMFERETTREKNLEKAIKEAKVKARKEQGRRDEVKDNVTEEQLKALEDEFFKTTDPAVGGGYGAGEGAAAE | not soluble
16 | MGSDKIHHHHHHVKEVKPKEDRVVLTKDQEKSLQIFCEWLEAPYSFKPFVMKGFAGSGKTYLSMKLLKKVDQLGLCWTVVAPTHKAVGVLREGLKNESIQPTWFPSTIHRLLRLKLKRQADIEICEKTDQTESSLENLGLVLIDEASMIDSKLLEITLECARCNSTRLVFVGDPAQLPPVGESTSSVFLMKRAVNTELREVVRHQGPVLKLAKVIRDGQIPCMQPPLVKVINSKKGNVGILDRTSWLERAKLALRLSSLEDDHDRARILCYTNRIVDNLVPHARRAIHGEMADQYQVLPGEVLISRKAVMVNASLNVDELGEEPDILISSNREMVVEDVIPNSFDLASLGIHQDFENPLPVIETQVAKVNCDQKEFSLRLMPQIGSKARKDLDLSLNELSNLARERGRKNSASTWKLFFFIRDSFASLGPASVLTIHRSQGSTFGEVFITSDAFWPKDLEFRRRLVYVAVSRASKGVWIVGDNKSKMNQALLEKLLMD | not soluble
17 | MSVFMDLNIINSSDKNRLKHIIETAAHLGYSTVAINYVVEPLQKKQEIPNPQSISDLFDKFPVVQGKSSPIKVLNRLTIVASDASHFRPTNEYKKFDLVAVYPKTEKLFHAACMTFDVDIICIAVTEKQPFHFKRAPVNGAIDRGIFFETCYAAAIRDSITRRYTIANAICLMEICKGKNVIVSSGAERQLELRGPYDIANLGLVFSLSEGDAKAAVSTNCRSVLLHGETRATASGVIHTMKKPQILQKEEEETPAAKKARTELA | soluble
18 | MAHHHHHHMNDETKVFNKCFKKISNCYTLNKKGEKENSTGNQFVLHNCIQTLLSDPIVVLYTDNNYICTGSLTGKVCLYKITIKENKETNTNISYVYNNNNNITDDEKKCINDLNNREELKKENYSKSTIDDVVISKKELNNHNNINNNNNNNNNNNNNSEIIKKYHILCMFRNNSIKSIYIDKNNIYICYESCIDVFCVRSYQFIQKINLDVTNNKQVIYYENYILFNNSKSLFIYDITSNFSSYFYKNFLKNIVIFDFNINYLLCYKNNFGKCHIRVLQIFADAQKCEHELIFCVDFSSKFISHGKFLDDEKIIVAKNGKRLIIFDFKKAIDMYRIRKLKKKILDIHKSVENMLFILVENQIFIFNLSTFVFYKTVQLPKGLFYFKWSYFIRYKNRKIIFSSDKGVYYIDYSIEENV | soluble
19 | MSLDKPVIQIHTDNSSLIFRVADNGRLYQSYLGKKLNHEADISHLPQGTEAYITHGMEDYFEPAIHILHNDGNPSLLLKYVSHETKAVSQGVNETIITLGDDKYPVTVKLHYVTYPAEDIIKTYTEISHKEKKPVVLHQYASSMLHLNRAKYYLTEFSGDWAHEANISDQPLEFGKKVLDTKLGARANMFTPPFFQLSLDQLATENCGEVLVGTLGWTGNFRFTFEVDNKNELRIISGINPYASEYYLPAGVVFRTPDFYFTYSANGKGKASRNFHDWARRYQLKDGDETRMTLLNNWEATYFDFNEEKLIGLIGDAAGLGVDMFLLDDGWFANKYPRSSDHQGLGDWDETADKLPNGIGRLVEEATKKGIKFGLWIEPEMVNPKSELYEKHKDWVIHLPNRDEYYFRNQLVLDLSNPKVQDFVFGVVDDLMTKYPGIAFFKWDCNSPITNIYSSYLKEKQSHLYIDYVRGLYNVLERIKTKYPDLPMMLCSGGSGRIDYETLRYFTEFWPSDNTDPIERLFIQWGYSQLFPAKTLCAHVTTWNHDASIKFRTDVAMMGKLGFDIKLSDLNDNEKKFCRDAVTNYNHLKPVVLEGDMYRLVSPYSGNHTSTQYVGKDKKGAVVFAFDIYSRYGEKLLPVRLQGLDAGRQYRVKEINLMPGTNSSLQGNGELFSGEYLMTVGLNIFTGQRLNSRVIEVVAEEGHHPITTDPNSSSVDKLAAALEHHHHHH | soluble
